Reference: US12517124B2, “Chimeric receptor for use in whole-cell sensors for detecting analytes of interest” (INSERM (Institut National de la Sante et de la Recherche …, priority 2017, dated 2026)

B1: CadC-wtTM-GCN4: CadC DNA binding domain, wild type CadC transmembrane region, C-terminal autodimerization leucine zipper GCN4 (protein)
chain: MQQPVVRVGEWLVTPSINQISRNGRQLTLEPRLIDLLVFFAQHSGEVLSRDELIDNVWKRSIVTNHVVTQSISELRKSLKDNDEDSPVYIATVPKRGYKLMVPVIWYSEEEGEEIMLSSPPPIPEAVPATDSPSHSLNIQNTATPPEQSPVKSKRFTTFWVWFFFLLSLGICVALVAFSSLDTRLPMLEDKVEELLSKNYHLENEVARL
B2: full-length LexA: full-length LexA transcriptional repressor, positive control (protein, UniProt P0A7C2 1-202, looked up)
chain: MKALTARQQEVFDLIRDHISQTGMPPTRAEIAQRLGFRSPNAAEEHLKALARKGVIEIVSGASRGIRLLQEEEEGLPLVGRVAAGEPLLAQQHIEGHYQVDPSLFKPNADFLLRVSGMSMKDIGIMDGDLLAVHKTQDVRNGQVVVARIDDEVTVKRLKKQGNKVELLPENSEFKPIVVDLRQQSFTIEGLAVGVIRNGDWL
modifications: full-length
notes: full-length LexA transcriptional repressor, positive control

Key:
[1] = system: reporter GFP through pCadBA promoter; assay: Activation of CadC transcriptional factor by periplasmic GCN4 domain oligomerization, GFP reporter, flow cytometry; type: cell-based, E. coli; conditions: compared to construct without GCN4; 1 mM IPTG
Text: CadC and LexA transcriptional factor DNA binding domain, Leucine zipper GCN4, VHHcafe and VHHRNase were synthesized by INTEGRATED DNA TECHNOLOGIES® (IDT®). Different DNA components such as GFP reporter, CadBA promoter, pLexA promoter and CadC variants were constructed into BIOBRICK® standard vector pSB4K5 by Gibson assembly methods. The resulting constructs were transformed into E. coli strain NEB®10beta (NEW ENGLAND BIOLABS®, NEB®) and determined their performance. In all constructs, the expression level of CadC variants are under the control of pLac-1 promoter, which can be induced by IPTG. The CadC variants control the expression of reporter GFP through pCadBA promoter.
Pick a single colony of CadC operating unit variant into 3 mL of LB/kanamycin medium and incubate in 37° C. overnight with vigorous shaking. The overnight culture is further diluted 100 fold into 3 mL of LB/kanamycin medium and incubated in 37° C. for 4 hours to reach to exponential phase (O.D=0.4˜0.6). […] The resulting cell culture was further analyzed with ATTUNE® NxT flow cytometer. […]

[2] = system: Green Fluorescent Protein (GFP) driven by the LexA promoter; type: cell-based, E. coli; conditions: different IPTG concentrations
Text: In order to prevent interference from endogenous E. coli LexA, we used the mutant LexA-408, and its corresponding promoter which is not recognized by the wild type LexA. We fused LexA DBD to a monomeric LBD that undergoes ligand-induced homodimerization. Thus, in the presence of ligand, LexA DBD should be able to bind DNA and repress target gene expression.
We used a single-domain VHH camelid antibody that can be dimerized upon binding to its ligand caffeine (termed VHH-Caffeine from herein). As a negative control we chose a VHH targeting RNase A (termed VHH-Control from herein).
Detection of caffeine using a LexA-VHH fusion. We built two chimeric proteins, expressed in E. coli cytoplasm, composed of an N-terminal LexA DBD and a C-terminal VHH, and placed their expression under the control of the pLacO1 promoter induced by isopropyl β-D-1-thiogalactopyranoside (IPTG). As a reporter, we used the Green Fluorescent Protein (GFP) driven by the LexA promoter. As positive and negative controls, we expressed full-length LexA and LexA DBD. […] We then characterized the behavior of cells expressing LexAVHH-Caffeine and LexA-VHH-Control in response to increasing concentrations of IPTG and caffeine (data not shown). […] We then monitored the response of the LexA-VHH fusions to increasing concentrations of caffeine at different IPTG concentrations. […] We calculated the fold repression of LexA-VHH-Caffeine.

Molecule	fold activation of downstream reporter gene (GFP) expression [1]	response to increasing concentrations of caffeine [2]
B1	50 fold	
B2		not affected by caffeine
